From publication PMC7304575, “Cryo-EM structure of the nonameric CsgG-CsgF complex and its implications for controlling curli biogenesis in Enterobacteriaceae” (PLoS Biology, 2020)

B1: CsgG with a C-terminal 6×His tag (natural protein, E. coli, UniProt P0AEA2 16-277, looked up)
chain: CLTAPPKEAARPTLMPRAQSYKDLTHLPAPTGKIFVSVYNIQDETGQFKPYPASNFSTAVPQSATAMLVTALKDSRWFIPLERQGLQNLLNERKIIRAAQENGTVAINNRIPLQSLTAANIMVEGSIIGYESNVKSGGVGARYFGIGADTQYQLDQIAVNLRVVNVSTGEILSSVNTSKTILSYEVQAGVFRFIDYQRLLEGEVGYTSNEPVMLCLMSAIETGVIFLINDGIDRGLWDLQNKAERQNDILVKYRHMSVPPES
notes: CsgG, E. coli K12 MG1655; the full-length csgG gene was expressed and the protein purified from outer membranes; the structure holds residues 16-272 with the C-terminal 5 residues invisible (so 16-277); numbers count on the full-length precursor; also called CsgGHis; C-terminally His-tagged CsgG; not shown: His6, C-terminal, kept
B2: chymotrypsin-digested CsgG (residues 47–252) of the CsgG-CsgF_(20–59) complex (domain or fragment, E. coli, UniProt P0AEA2 47-252, looked up)
chain: GKIFVSVYNIQDETGQFKPYPASNFSTAVPQSATAMLVTALKDSRWFIPLERQGLQNLLNERKIIRAAQENGTVAINNRIPLQSLTAANIMVEGSIIGYESNVKSGGVGARYFGIGADTQYQLDQIAVNLRVVNVSTGEILSSVNTSKTILSYEVQAGVFRFIDYQRLLEGEVGYTSNEPVMLCLMSAIETGVIFLINDGIDRGLW
notes: numbers count on the full-length precursor; The His tag goes with the C-terminal residues that chymotrypsin removed; source: E. coli BL21 (DE3), co-expressed with CsgF, purified (Ni-NTA), chymotrypsin proteolysis, size exclusion chromatography; not shown: His6, C-terminal, cleaved
B3: CsgF_(20–53)-GST (domain or fragment, E. coli, UniProt P0AE98 20-53, looked up)
chain: GTMTFQFRNPNFGGNPNNGAFLLNSAQAQNSYKD
notes: CsgF, E. coli, residues 20-53 (N-terminus of the mature CsgF); numbers count on the full-length precursor; also called CsgF_(20–53) fused to GST C-terminally; source: E. coli BL21 (DE3), purified; not shown: GST, C-terminal, kept

Assays:
[1] = molecular target: the molecule itself; assay: cryo-EM structure; full-length CsgG-CsgF complex, co-expressed and co-purified in DDM; map at 3.6 Å
[2] = molecular target: the molecule itself; assay: cryo-EM structure; chymotrypsin-digested CsgG-CsgF_(20–59) complex in 20 mM Tris-HCl pH 8.0, 150 mM NaCl, 0.06% DDM; filaments on the grid; maps at 2.9 Å (head-to-head, D9) and 3.2 Å (head-to-tail, C9)
[3] = molecular target: B1; assay: pull-down; GST fusions or GST (approximately 0.1 mg) immobilised on glutathione sepharose, approximately 0.2 mg CsgG added, 1 hour at 4°C; washed with 20 mM Tris-HCl pH 7.5, 150 mM NaCl, 5% glycerol, 0.1% DDM; SDS-PAGE and anti-His western blot; conditions: both partners purified

Binder: B1
- stoichiometry N [1]: 9

Binder: B2
- stoichiometry N [2]: 9

Binder: B3
- binding result [3]: binds
